Numbering of substitutions follows the chain as printed.

Usually Kd stands for a measure of binding affinity in units of concentration. Usually koff stands for the first-order rate constant of dissociation. Usually kon stands for the rate constant with which the complex forms.

Experiment [1] has as its target Recombinant human his-tagged IGF 1R extracellular domain protein (human) (UniProt P08069). As to the kind of experiment: SPR, captured antibody, pH 7.4. In general terms: In SPR one partner is held on a chip, and binding of the other changes the refractive index at the surface.
The target is the same in experiment [2]. The experiment is described as follows: SPR, captured antibody, dissociation at pH 6.

B1: VRDN-03047 (antibody, V domains shown)
VH: QVELVESGGGVVQPGRSQRLSCAASGFTFSSYGMHWVRQAPGKGLEWVAIIWFDGSSTYYADSVRGRFTISRDNSKNTLYLQMNSLRAEDTAVYFCARELGRRYFDLWGRGTLVSVSS
VL: EIVLTQSPATLSLSPGERATLSCRASQSVSSYHAWYQQKPGQAPRLLIYDASKRATGIPARFSGSGSGTDFTLTISSLEPEDFAVYYCQQRSKWPPWTFGQGTKVESK
Regarding B1, in experiment [1], the Kd was 2.95 nM, the koff is 0.000282 s⁻¹ and the on-rate (kon) turned out to be 95700 M⁻¹ s⁻¹. Further, in experiment [2], the Kd turned out to be 3.77 nM, the koff was 0.000294 s⁻¹ and the kon was 78100 M⁻¹ s⁻¹.

B2: VRDN-03050 (antibody, V domains shown)
VH: B1 VH
VL: B1 VL with H33L, A51H
Consider B2, for which, in experiment [1], the Kd worked out at 2.03 nM, the koff is 0.00021 s⁻¹ and the on-rate constant (kon) was 103000 M⁻¹ s⁻¹. In experiment [2], the dissociation constant (Kd) was found to be 2.25 nM, the koff was found to be 0.00017 s⁻¹ and the kon worked out at 75800 M⁻¹ s⁻¹.

B3: VRDN-03098 (antibody, V domains shown)
VH: B1 VH with E3Q, Q18L, G33S, T58K, R65K, F95Y, L107I, S115T
VL: B1 VL with S28G, H33L, D50G, K53T, K93R, V105L, S107I
Consider B3, for which, in experiment [1], the Kd stood at 2.05 nM, the koff was 0.000135 s⁻¹ and the kon amounted to 65900 M⁻¹ s⁻¹. In addition, in experiment [2], the Kd was 1.24 nM, the koff was 0.000306 s⁻¹ and the kon is 247000 M⁻¹ s⁻¹.

B4: VRDN-03055 (antibody, V domains shown)
VH: B1 VH
VL: B1 VL with H33L, T56H
In the case of B4, in experiment [1], the Kd came to 1.92 nM, the koff came out at 0.000188 s⁻¹ and the kon was 97700 M⁻¹ s⁻¹. In addition, in experiment [2], the dissociation constant (Kd) was 1.61 nM, the koff was found to be 0.00014 s⁻¹ and the kon was determined as 87000 M⁻¹ s⁻¹.

B5: VRDN-03051 (antibody, V domains shown)
VH: B1 VH
VL: B1 VL with H33L, S52H
Regarding B5, in experiment [1], the Kd turned out to be 1.86 nM, the koff was 0.000203 s⁻¹ and the kon was 110000 M⁻¹ s⁻¹. For the same molecule, in experiment [2], the Kd was 2.12 nM, the koff was found to be 0.000162 s⁻¹ and the kon is 76200 M⁻¹ s⁻¹.

B6: VRDN-03049 (antibody, V domains shown)
VH: B1 VH
VL: B1 VL with H33L, D50H
On to B6, for which, in experiment [1], the Kd worked out at 1.56 nM, the koff is 0.000183 s⁻¹ and the on-rate constant (kon) turned out to be 117000 M⁻¹ s⁻¹. In experiment [2], the Kd was 2.7 nM, the koff came out at 0.000201 s⁻¹ and the kon was 74300 M⁻¹ s⁻¹.

B7: VRDN-03054 (antibody, V domains shown)
VH: B1 VH
VL: B1 VL with H33L, A55H
In the case of B7, in experiment [1], the Kd is 1.11 nM, the koff amounted to 0.000104 s⁻¹ and the kon came out at 93500 M⁻¹ s⁻¹. Besides, in experiment [2], the Kd was found to be 0.866 nM, the koff amounted to 8.18e-05 s⁻¹ and the kon stood at 94500 M⁻¹ s⁻¹.

B8: VRDN-03053 (antibody, V domains shown)
VH: B1 VH
VL: B1 VL with H33L, R54H
Regarding B8, in experiment [1], the Kd was 1.79 nM, the koff came to 0.000188 s⁻¹ and the kon is 105000 M⁻¹ s⁻¹. In experiment [2], the Kd was 1.67 nM, the dissociation rate constant (koff) worked out at 0.00016 s⁻¹ and the kon amounted to 95500 M⁻¹ s⁻¹.

B9: VRDN-03099 (antibody, V domains shown)
VH: B1 VH with E3Q, Q18L, G33S, T58K, A61V, R65K, F95Y, L107I, S115T
VL: B1 VL with S28G, H33L, D50G, K53T, K93R, V105L, S107I
B9: in experiment [1], the Kd was 2.18 nM, the koff worked out at 0.000139 s⁻¹ and the kon turned out to be 63700 M⁻¹ s⁻¹. In experiment [2], the dissociation constant Kd came out at 1.34 nM, the off-rate constant (koff) was determined as 0.000296 s⁻¹ and the kon stood at 221000 M⁻¹ s⁻¹.

Source of the values: US20240352133A1.
